Test results reported in US20150087584A1.

Target: Helicoverpa armigera gut proteases (HGP) (Helicoverpa armigera)
Test: cell-based or functional assay

Row | Binder | HGPI activity of the IRD alone at its IC50 concentration [%] | inhibition of HGP activity (BApNA and Azocasein substrates) [%]
1 | NRLCTNCCAGRKGCNYYSADGTFICEGESDPNNPKACPRNCDPNIAYSLC [inhibitory repeat domain IRD-12 of Capsicum annuum Pin-II proteinase inhibitors (CanPIs)] | 51 | 80 to 85
2 | QPICTNSSAGLKGCNYYNADGTFICEGESDPNHPKACPKNCDPNIAYSLC [inhibitory repeat domain IRD-9 of Capsicum annuum Pin-II proteinase inhibitors (CanPIs)] |  | 80 to 85
